Reference: US20220372112A1 (KEYMED BIOSCIENCES, published 2022)
Positions count from the first letter of the chain named. Each block holds one binder with its values, some of them ahead of it.

Molecular target: T1, human Claudin 18.2 (human, UniProt P56856-2 1-261)
T1 construct: whole, on cells
T1 sequence (looked up): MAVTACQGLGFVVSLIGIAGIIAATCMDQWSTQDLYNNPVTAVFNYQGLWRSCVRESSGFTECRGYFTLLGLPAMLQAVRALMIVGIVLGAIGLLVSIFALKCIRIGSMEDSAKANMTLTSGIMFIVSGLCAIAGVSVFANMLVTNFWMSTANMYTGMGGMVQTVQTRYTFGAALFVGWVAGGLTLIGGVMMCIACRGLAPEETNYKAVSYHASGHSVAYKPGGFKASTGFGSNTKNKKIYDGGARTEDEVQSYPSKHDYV
Assay: flow cytometry (iQue) on cells, antibody from 100 nM in 5-fold steps; cell line not named in Example 5
Protocol: The cells at logarithmic growth phase were taken, blocked with 3% BSA for 30 minutes, plated at 5×10⁴ cells/100 μL into a U-shaped 96-well plate, centrifuged at 1100 rpm for 3 minutes, the supernatant was discarded, the cells were gently patted and loosed, 50 μL of antibody diluted according to the series was added to each well (antibody concentration starts from 100 nM, 5 times dilution in 8 series), incubated at 4° C. for 1 hour. After the incubation, 140 μL of 0.5% BSA was added to each well to wash 3 times, AF 647 APC anti-human secondary antibody was added with 30 μL/well and incubated at 4° C. for 40 minutes. After the incubation, 140 μL of 0.5% BSA was added to each well to wash 3 times, and finally resuspended each well with 50 μL PBS for iQue (Intellicyt, USA) detection (shown in Table 2).

EC50: 0.773 nM
B1: h15F9.v25 (antibody, V domains shown)
VH: QIQLVQSGSELKKPGASVKVSCKASGYTFTNYGINWVRQAPGQGLEWMGWINPNTGETTYAEGFTGRFVLSWDTSVSTAYLQISSLKAEDTAVYFCARLYYGNRFDSWGQGTLVTVSS
VL: DIVMTQSPDSLAVSLGERATINCKSSQSLLNSGNQRNYLAWYQQKPGQPPKLLIYWASTRESGVPDRFSGSGSGTDFTLTISSLQAEDVAVYYCQQAYYYPLTFGGGTKVEIK
notes: Humanized; also called 15F9VLv2 + 15F9VHv5

EC50: 0.913 nM
B2: h18A9.v12 (antibody, V domains shown)
VH: QVQLVQSGAEVKKPGSSVKVSCKPSGYTFTNYLIDWVRQAPGQGLEWMGGINPGSGDTVYNEKFQGRVTLTADESTSTAYMELSSLRSEDTAVYFCARRVRGNSFDSWGQGTLVTVSS
VL: B1 VL with R36K, A40T, T75K, Q96N, A97N, Y99F
notes: Humanized; also called 18A9VLv1 + 18A9VHv2

EC50: 0.912 nM
B3: 18D10.V13 (antibody, V domains shown)
VH: QVQLQESGPGLVKPSETLSLTCTVSGGSISSNYAWNWIRQPPGKGLEWIGYINYSGNTNYNPSLKSRVTISRDTSKNQFSLKLSSVTAADTAVYYCATSYYGNSFIYWGQGTLVTVSS
VL: B1 VL with R36K, A40T, Q96N, Y99S, Y100F, L102W, G106Q
notes: Humanized; also called 18D10VLv1 + 18D10VHv3

EC50: 1.87 nM
B4: 18D10.V26 (antibody, V domains shown)
VH: B3 VH with N53Y
VL: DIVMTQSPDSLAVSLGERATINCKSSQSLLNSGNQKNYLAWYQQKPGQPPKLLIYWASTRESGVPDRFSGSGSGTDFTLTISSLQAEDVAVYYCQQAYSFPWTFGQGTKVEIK
notes: Humanized; also called 18D10VLv2 + 18D10VHv6

EC50: 2.69 nM
B5: 18D10.V15 (antibody, V domains shown)
VH: B3 VH with N59A
VL: B1 VL with R36K, A40T, Q96N, Y99S, Y100F, L102W, G106Q
notes: Humanized; also called 18D10VLv1 + 18D10VHv5

EC50: 0.646 nM
B6: h18A9.v27 (antibody, V domains shown)
VH: B2 VH with S16A, E74T, A79V
VL: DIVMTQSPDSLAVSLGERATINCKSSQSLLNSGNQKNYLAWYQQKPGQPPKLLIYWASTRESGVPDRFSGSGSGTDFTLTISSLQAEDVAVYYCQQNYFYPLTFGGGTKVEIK
notes: Humanized; also called 18A9VLv2 + 18A9VHv7

EC50: 0.786 nM
B7: h15F9.v36 (antibody, V domains shown)
VH: B1 VH with N54G
VL: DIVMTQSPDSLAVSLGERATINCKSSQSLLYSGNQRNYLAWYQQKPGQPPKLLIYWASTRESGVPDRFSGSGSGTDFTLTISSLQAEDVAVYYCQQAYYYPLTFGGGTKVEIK
notes: Humanized; also called 15F9VLv3 + 15F9VHv6

EC50: 0.645 nM
B8: h18A9.v11 (antibody, V domains shown)
VH: B2 VH with T28A, E74K, T76S, S77M
VL: B1 VL with R36K, A40T, T75K, Q96N, A97N, Y99F
notes: Humanized; also called 18A9VLv1 + 18A9VHv1

EC50: 1.68 nM
B9: 18D10.V12 (antibody, V domains shown)
VH: B3 VH with I49M, V68I
VL: B1 VL with R36K, A40T, Q96N, Y99S, Y100F, L102W, G106Q
notes: Humanized; also called 18D10VLv1 + 18D10VHv2

EC50: 0.951 nM
B10: h15F9.v35 (antibody, V domains shown)
VH: B1 VH
VL: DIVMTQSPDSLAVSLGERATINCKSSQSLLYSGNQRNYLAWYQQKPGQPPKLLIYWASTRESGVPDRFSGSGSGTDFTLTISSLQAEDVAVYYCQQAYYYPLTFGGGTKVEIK
notes: Humanized; also called 15F9VLv3 + 15F9VHv5

EC50: 0.822 nM
B11: h18A9.v22 (antibody, V domains shown)
VH: B2 VH
VL: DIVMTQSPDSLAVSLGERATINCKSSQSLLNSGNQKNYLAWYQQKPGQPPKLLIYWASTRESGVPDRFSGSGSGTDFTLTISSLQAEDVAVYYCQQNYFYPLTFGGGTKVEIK
notes: Humanized; also called 18A9VLv2 + 18A9VHv2

EC50: 0.761 nM
B12: h18A9.v13 (antibody, V domains shown)
VH: B2 VH with E74K, T76S, S77M, F95Y
VL: B1 VL with R36K, A40T, T75K, Q96N, A97N, Y99F
notes: Humanized; also called 18A9VLv1 + 18A9VHv3

EC50: 1.43 nM
B13: h18A9.v17 (antibody, V domains shown)
VH: B2 VH with S16A, E74T, A79V
VL: B1 VL with R36K, A40T, T75K, Q96N, A97N, Y99F
notes: Humanized; also called 18A9VLv1 + 18A9VHv7

EC50: 2.53 nM
B14: h15F9.v15r1 (antibody, V domains shown)
VH: B1 VH with I2V, G63E, T65K, L70F, W72L
VL: B1 VL with A40T, Q96N
notes: Humanized; also called 15F9VLv1 + 15F9VHv5r1

EC50: 1.41 nM
B15: h18A9.v26 (antibody, V domains shown)
VH: B2 VH with S16A, T28A, E74K, T76S
VL: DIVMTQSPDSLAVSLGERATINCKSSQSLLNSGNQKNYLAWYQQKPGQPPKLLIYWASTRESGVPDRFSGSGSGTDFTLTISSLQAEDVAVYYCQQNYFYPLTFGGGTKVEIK
notes: Humanized; also called 18A9VLv2 + 18A9VHv6

EC50: 1.72 nM
B16: h15F9.v25r1 (antibody, V domains shown)
VH: B1 VH with I2V, G63E, T65K, L70F, W72L
VL: B1 VL
notes: Humanized; also called 15F9VLv2 + 15F9VHv5r1

EC50: 1.9 nM
B17: 18D10.V22 (antibody, V domains shown)
VH: B3 VH with I49M, V68I
VL: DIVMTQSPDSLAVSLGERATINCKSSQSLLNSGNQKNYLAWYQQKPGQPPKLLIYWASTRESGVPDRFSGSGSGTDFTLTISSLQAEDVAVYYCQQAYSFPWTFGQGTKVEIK
notes: Humanized; also called 18D10VLv2 + 18D10VHv2

EC50: 1.03 nM
B18: h18A9.v21 (antibody, V domains shown)
VH: B2 VH with T28A, E74K, T76S, S77M
VL: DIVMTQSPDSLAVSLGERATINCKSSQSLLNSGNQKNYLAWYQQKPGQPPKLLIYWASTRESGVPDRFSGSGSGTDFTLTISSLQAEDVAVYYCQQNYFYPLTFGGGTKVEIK
notes: Humanized; also called 18A9VLv2 + 18A9VHv1

EC50: 1.07 nM
B19: 18D10.V21 (antibody, V domains shown)
VH: B3 VH with G27Y, S30T
VL: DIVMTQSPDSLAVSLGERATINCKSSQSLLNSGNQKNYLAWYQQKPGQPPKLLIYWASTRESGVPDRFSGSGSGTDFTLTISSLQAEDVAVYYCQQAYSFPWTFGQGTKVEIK
notes: Humanized; also called 18D10VLv2 + 18D10VHv1

EC50: 2.06 nM
B20: h18A9.v24 (antibody, V domains shown)
VH: B2 VH with P24A, E74K, T76S, S77M
VL: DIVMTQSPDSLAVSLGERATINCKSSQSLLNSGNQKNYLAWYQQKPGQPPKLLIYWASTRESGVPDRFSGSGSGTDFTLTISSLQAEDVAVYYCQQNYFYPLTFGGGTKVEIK
notes: Humanized; also called 18A9VLv2 + 18A9VHv4

EC50: 1.26 nM
B21: 18D10.V25 (antibody, V domains shown)
VH: B3 VH with N59A
VL: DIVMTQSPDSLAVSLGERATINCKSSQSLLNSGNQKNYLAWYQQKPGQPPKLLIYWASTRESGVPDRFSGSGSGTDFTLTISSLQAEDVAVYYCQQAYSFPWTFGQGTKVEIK
notes: Humanized; also called 18D10VLv2 + 18D10VHv5

EC50: 1.93 nM
B22: 18D10.V24 (antibody, V domains shown)
VH: B3 VH with N57Y
VL: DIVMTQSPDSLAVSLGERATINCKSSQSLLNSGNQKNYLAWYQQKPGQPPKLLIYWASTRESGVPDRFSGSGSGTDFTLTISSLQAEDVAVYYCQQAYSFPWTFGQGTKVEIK
notes: Humanized; also called 18D10VLv2 + 18D10VHv4

EC50: 1.02 nM
B23: h15F9.v26 (antibody, V domains shown)
VH: B1 VH with N54G
VL: B1 VL
notes: Humanized; also called 15F9VLv2 + 15F9VHv6

EC50: 1.2 nM
B24: h15F9.v35r1 (antibody, V domains shown)
VH: B1 VH with I2V, G63E, T65K, L70F, W72L
VL: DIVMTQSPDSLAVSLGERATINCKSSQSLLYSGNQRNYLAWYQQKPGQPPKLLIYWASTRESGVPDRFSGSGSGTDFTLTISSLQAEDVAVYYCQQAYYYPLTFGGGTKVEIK
notes: Humanized; also called 15F9VLv3 + 15F9VHv5r1

EC50: 1.65 nM
B25: h15F9.v15r2 (antibody, V domains shown)
VH: B1 VH with Q1E, I2V, N54Y, G63E, T65K, L70F, W72L
VL: B1 VL with A40T, Q96N
notes: Humanized; also called 15F9VLv1 + 15F9VHv5r2

EC50: 0.879 nM
B26: h15F9.v35r2 (antibody, V domains shown)
VH: B1 VH with Q1E, I2V, N54Y, G63E, T65K, L70F, W72L
VL: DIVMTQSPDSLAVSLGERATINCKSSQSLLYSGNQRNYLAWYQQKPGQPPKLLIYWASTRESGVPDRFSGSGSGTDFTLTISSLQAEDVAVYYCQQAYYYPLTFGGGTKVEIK
notes: Humanized; also called 15F9VLv3 + 15F9VHv5r2

EC50: 1.17 nM
B27: h18A9.v23 (antibody, V domains shown)
VH: B2 VH with E74K, T76S, S77M, F95Y
VL: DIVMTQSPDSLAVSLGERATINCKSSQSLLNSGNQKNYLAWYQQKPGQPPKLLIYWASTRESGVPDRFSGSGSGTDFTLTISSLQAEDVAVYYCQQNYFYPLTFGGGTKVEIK
notes: Humanized; also called 18A9VLv2 + 18A9VHv3

EC50: 0.799 nM
B28: h18A9.v16 (antibody, V domains shown)
VH: B2 VH with S16A, T28A, E74K, T76S
VL: B1 VL with R36K, A40T, T75K, Q96N, A97N, Y99F
notes: Humanized; also called 18A9VLv1 + 18A9VHv6

EC50: 1.67 nM
B29: h15F9.v15 (antibody, V domains shown)
VH: B1 VH
VL: B1 VL with A40T, Q96N
notes: Humanized; also called 15F9VLv1 + 15F9VHv5

EC50: 0.982 nM
B30: 18D10.V23 (antibody, V domains shown)
VH: B3 VH
VL: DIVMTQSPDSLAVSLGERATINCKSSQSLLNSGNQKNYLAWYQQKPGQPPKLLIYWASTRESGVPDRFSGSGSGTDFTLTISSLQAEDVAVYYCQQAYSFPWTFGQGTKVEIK
notes: Humanized; also called 18D10VLv2 + 18D10VHv3

EC50: 1.41 nM
B31: h18A9.v15 (antibody, V domains shown)
VH: B2 VH with L70I
VL: B1 VL with R36K, A40T, T75K, Q96N, A97N, Y99F
notes: Humanized; also called 18A9VLv1 + 18A9VHv5

EC50: 0.964 nM
B32: h18A9.v25 (antibody, V domains shown)
VH: B2 VH with L70I
VL: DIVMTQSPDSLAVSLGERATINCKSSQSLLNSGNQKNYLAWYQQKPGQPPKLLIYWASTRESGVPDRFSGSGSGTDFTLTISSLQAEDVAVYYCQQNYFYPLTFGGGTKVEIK
notes: Humanized; also called 18A9VLv2 + 18A9VHv5

EC50: 1.61 nM
B33: h15F9.v25r2 (antibody, V domains shown)
VH: B1 VH with Q1E, I2V, N54Y, G63E, T65K, L70F, W72L
VL: B1 VL
notes: Humanized; also called 15F9VLv2 + 15F9VHv5r2

EC50: 0.705 nM
B34: h15F9.v16 (antibody, V domains shown)
VH: B1 VH with N54G
VL: B1 VL with A40T, Q96N
notes: Humanized; also called 15F9VLv1 + 15F9VHv6

EC50: 0.548 nM
B35: h18A9.v14 (antibody, V domains shown)
VH: B2 VH with P24A, E74K, T76S, S77M
VL: B1 VL with R36K, A40T, T75K, Q96N, A97N, Y99F
notes: Humanized; also called 18A9VLv1 + 18A9VHv4

EC50: 1.74 nM
B36: 18D10.V14 (antibody, V domains shown)
VH: B3 VH with N57Y
VL: B1 VL with R36K, A40T, Q96N, Y99S, Y100F, L102W, G106Q
notes: Humanized; also called 18D10VLv1 + 18D10VHv4

EC50: 1.13 nM
B37: 18D10.V11 (antibody, V domains shown)
VH: B3 VH with G27Y, S30T
VL: B1 VL with R36K, A40T, Q96N, Y99S, Y100F, L102W, G106Q
notes: Humanized; also called 18D10VLv1 + 18D10VHv1

EC50: 2.31 nM
B38: 18D10.V16 (antibody, V domains shown)
VH: B3 VH with N53Y
VL: B1 VL with R36K, A40T, Q96N, Y99S, Y100F, L102W, G106Q
notes: Humanized; also called 18D10VLv1 + 18D10VHv6
